Test results as given in the supplement of paper PMC9876800.

Test system: peptide library, one residue held at a place counted from the S/T acceptor
Assay: relative phosphorylation of the sub-library (ratio to the mean residue at this position); human; higher = residue favoured
Procedure, shortened: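 Human or orthologue kinase constructs, purified and recombinant, were incubated under kinase-specific conditions in 384-well plates with biotinylated degenerate peptide sub-libraries. Each sub-library fixed one residue at one position around a central Ser/Thr. Incubations lasted 90 min with peptides at 50 μM and 50 μM ATP spiked with γ-32P-ATP, after which spots on streptavidin membranes were phosphorimaged and quantified by densitometry. Relative sub-library phosphorylation is a ratio to the mean residue at that position.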

AURKA, construct: Full length, sequence (O14965 whole entry, looked up): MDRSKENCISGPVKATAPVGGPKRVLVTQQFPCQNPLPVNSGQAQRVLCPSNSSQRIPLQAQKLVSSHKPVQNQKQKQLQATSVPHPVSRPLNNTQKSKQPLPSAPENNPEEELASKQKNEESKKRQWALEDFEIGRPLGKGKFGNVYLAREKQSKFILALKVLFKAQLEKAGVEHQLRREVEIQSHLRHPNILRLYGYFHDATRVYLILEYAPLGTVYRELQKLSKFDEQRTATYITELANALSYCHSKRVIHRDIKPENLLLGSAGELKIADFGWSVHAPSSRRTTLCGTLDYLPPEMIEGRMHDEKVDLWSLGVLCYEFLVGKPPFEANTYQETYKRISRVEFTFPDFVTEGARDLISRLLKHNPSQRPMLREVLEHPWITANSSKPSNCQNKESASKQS
AURKB, construct: Full length, sequence (Q96GD4 whole entry, looked up): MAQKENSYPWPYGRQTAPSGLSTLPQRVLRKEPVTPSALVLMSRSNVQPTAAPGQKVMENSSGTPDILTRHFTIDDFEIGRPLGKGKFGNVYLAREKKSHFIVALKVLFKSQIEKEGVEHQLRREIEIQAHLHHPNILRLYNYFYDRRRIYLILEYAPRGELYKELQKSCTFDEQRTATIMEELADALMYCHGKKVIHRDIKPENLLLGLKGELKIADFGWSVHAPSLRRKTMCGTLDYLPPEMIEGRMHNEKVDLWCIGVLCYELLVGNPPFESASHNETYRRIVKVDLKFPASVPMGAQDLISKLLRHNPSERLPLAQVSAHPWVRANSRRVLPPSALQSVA
ACVR1B, construct: aa150-end, sequence (P36896 150-505, looked up): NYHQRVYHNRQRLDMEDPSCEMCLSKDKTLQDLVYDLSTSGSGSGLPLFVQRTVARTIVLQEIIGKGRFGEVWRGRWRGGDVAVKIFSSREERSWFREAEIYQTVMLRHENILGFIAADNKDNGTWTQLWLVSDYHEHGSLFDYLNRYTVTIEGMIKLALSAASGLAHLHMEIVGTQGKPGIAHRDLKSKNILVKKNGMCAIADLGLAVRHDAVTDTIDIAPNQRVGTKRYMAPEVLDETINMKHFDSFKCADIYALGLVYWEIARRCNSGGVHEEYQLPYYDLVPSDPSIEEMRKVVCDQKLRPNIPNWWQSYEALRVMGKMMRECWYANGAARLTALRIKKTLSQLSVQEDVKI

ACVR1B, construct: aa150-end (from UniProt P36896)
relative phosphorylation
Settings	at +1	at +2	at +3	at +4	at -1	at -2	at -3	at -4	at -5
A fixed	0.754	1.35	0.905	1.06	0.833	0.721	0.953	0.891	1.03
D fixed	1.17	1.11	1.11	1.24	1.05	1.58	1.35	1.55	1.12
E fixed	1.75	0.847	1.54	1.19	1.32	6.31	1.52	1.26	0.838
F fixed	1.09	1.01	1.19	0.997	0.896	0.497	1.03	1.02	1.13
G fixed	0.796	0.995	1.22	0.798	0.65	0.801	1.12	1.03	0.975
H fixed	0.749	0.809	0.948	0.968	1.16	0.606	1.02	0.997	1.24
I fixed	1.21	1.13	1.06	0.855	1	0.622	0.855	0.874	0.837
K fixed	0.542	0.649	0.605	0.896	0.747	0.483	0.798	0.987	1.11
L fixed	1.05	1.22	1.01	0.818	1.33	0.597	0.85	0.936	0.931
M fixed	1.33	0.865	1.04	0.967	1.45	0.497	0.998	1.06	0.968
N fixed	0.774	0.902	0.741	0.975	0.963	0.716	0.96	0.954	1.01
P fixed	0.691	1.17	1.14	1.42	0.762	0.549	0.947	0.94	0.939
Q fixed	0.944	0.952	0.909	1.01	1.03	0.72	0.956	0.768	0.809
R fixed	0.604	0.764	0.662	0.799	0.88	0.624	0.884	0.889	1.11
V fixed	1.19	1.18	1.09	0.929	1.12	0.603	0.867	0.843	0.816
W fixed	1.14	0.919	0.903	1.07	0.822	0.592	0.892	1.01	1.19
Y fixed	1.23	1.13	0.95	1.01	0.991	0.49	0.995	0.998	0.953
pThr fixed	2.93	1.06	0.942	1.36	0.888	1.36	1.34	0.896	1.1
pTyr fixed	3.57	1.77	1.28	1.51	1.27	0.679	1.02	1.26	1.03

AURKA, construct: Full length (from UniProt O14965)
relative phosphorylation
Settings	at +1	at +2	at +3	at +4	at -1	at -2	at -3	at -4	at -5
A fixed	0.474	1	0.906	0.863	0.683	0.209	0.665	1.08	1.08
D fixed	1.14	0.993	0.822	0.906	1.39	0.274	0.606	1.4	1
E fixed	0.796	1.03	0.851	1.1	1.56	0.257	0.85	0.963	1.06
F fixed	1.83	0.958	1.25	0.755	0.884	0.203	0.574	0.725	0.83
G fixed	0.647	1.76	1.48	1.05	0.689	0.32	1.38	1.23	1.18
H fixed	0.665	1.3	1.32	1.18	1.09	0.341	0.964	0.952	1.08
I fixed	1.66	1.03	0.865	0.931	0.637	0.162	0.46	0.706	0.874
K fixed	0.241	0.324	0.844	1.19	0.707	1.32	1.58	1.35	1.38
L fixed	2.05	0.784	0.812	0.649	1.32	0.182	0.367	0.766	0.753
M fixed	1.76	0.832	0.752	1	1.38	0.176	0.541	0.818	0.722
N fixed	0.852	0.649	0.798	1.26	1.15	0.345	0.857	1.04	1.2
P fixed	0.211	0.78	1.3	0.969	0.748	0.289	0.883	0.905	0.738
Q fixed	0.735	0.629	0.843	1.06	1.09	0.608	0.667	0.908	0.802
R fixed	0.425	0.509	0.821	1.24	1.16	11.7	4.83	1.71	1.67
V fixed	1.11	0.766	0.775	0.682	0.601	0.163	0.425	0.699	0.759
W fixed	1.26	0.881	1.2	1.22	0.587	0.232	0.779	0.966	0.906
Y fixed	1.14	2.77	1.36	0.948	1.33	0.185	0.574	0.782	0.964
pThr fixed	1.61	1.26	1.07	1.53	0.588	0.374	0.879	0.972	1.04
pTyr fixed	0.836	1.53	1.74	1.43	2.24	0.356	1	0.962	1.3

AURKB, construct: Full length (from UniProt Q96GD4)
relative phosphorylation
Settings	at +1	at +2	at +3	at +4	at -1	at -2	at -3	at -4	at -5
A fixed	0.803	0.959	0.784	0.784	0.651	0.28	0.727	1.01	1.08
D fixed	0.673	0.507	0.523	0.986	0.489	0.176	0.485	0.629	0.734
E fixed	0.611	0.427	0.498	0.727	0.433	0.183	0.422	0.653	0.511
F fixed	1.34	1.05	1.35	0.856	0.678	0.247	0.633	0.724	0.867
G fixed	1.11	1.59	1.3	1.06	0.553	0.381	0.954	1.17	1.24
H fixed	0.933	1.6	1.51	1.09	0.971	0.542	1.02	1.03	1.06
I fixed	1.21	0.911	0.957	0.869	0.735	0.217	0.553	0.709	0.855
K fixed	0.78	0.77	0.955	1.13	2.06	2.28	2.2	1.8	1.81
L fixed	1.49	0.948	1.14	0.989	1.23	0.25	0.554	0.738	0.779
M fixed	1.59	0.864	0.901	1.06	0.97	0.243	0.661	0.829	0.786
N fixed	1.33	1.04	0.981	1.08	0.788	0.377	0.784	0.844	0.966
P fixed	0.212	1.07	1.1	1.32	0.917	0.327	0.9	0.953	0.985
Q fixed	1.18	1.13	0.923	1.32	1.08	0.528	0.775	0.849	0.911
R fixed	1.05	0.972	0.968	1.01	2.98	10.2	4.37	2.72	1.9
V fixed	0.82	0.897	0.844	0.823	0.827	0.207	0.564	0.687	0.762
W fixed	0.932	1.05	1.23	1.17	0.605	0.287	0.735	0.855	0.931
Y fixed	0.922	1.22	1.05	0.734	1.04	0.276	0.665	0.798	0.831
pThr fixed	0.88	0.581	0.555	1.08	0.413	0.314	0.591	0.691	0.716
pTyr fixed	0.59	0.435	0.847	0.784	0.461	0.272	0.62	0.556	0.66
